The results in this text go back to article doi:10.1101/2024.07.12.603331.

In general, stoichiometry N refers to a count of units in the complex or per binding partner.

In the experiment the target is soluble extracellular domain of human DPP4 (residues S39-P766) (human), P27487. As to the kind of experiment: SEC-MALS. The note with it: remark: other sources report otherwise. On the technique in general: SEC sorts molecules by how far they enter the pores of the column.

B1: soluble extracellular domain of human DPP4 (residues S39-P766), P27487 39-766 (domain or fragment)
chain: SRKTYTLTDYLKNTYRLKLYSLRWISDHEYLYKQENNILVFNAEYGNSSVFLENSTFDEFGHSINDYSISPDGQFILLEYNYVKQWRHSYTASYDIYDLNKRQLITEERIPNNTQWVTWSPVGHKLAYVWNNDIYVKIEPNLPSYRITWTGKEDIIYNGITDWVYEEEVFSAYSALWWSPNGTFLAYAQFNDTEVPLIEYSFYSDESLQYPKTVRVPYPKAGAVNPTVKFFVVNTDSLSSVTNATSIQITAPASMLIGDHYLCDVTWATQERISLQWLRRIQNYSVMDICDYDESSGRWNCLVARQHIEMSTTGWVGRFRPSEPHFTLDGNSFYKIISNEEGYRHICYFQIDKKDCTFITKGTWEVIGIEALTSDYLYYISNEYKGMPGGRNLYKIQLSDYTKVTCLSCELNPERCQYYSVSFSKEAKYYQLRCSGPGLPLYTLHSSVNDKGLRVLEDNSALDKMLQNVQMPSKKLDFIILNETKFWYQMILPPHFDKSKKYPLLLDVYAGPCSQKADTVFRLNWATYLASTENIIVASFDGRGSGYQGDKIMHAINRRLGTFEVEDQIEAARQFSKMGFVDNKRIAIWGWSYGGYVTSMVLGSGSGVFKCGIAVAPVSRWEYYDSVYTERYMGLPTPEDNLDHYRNSTVMSRAENFKQVEYLLIHGTADDNVHFQQSAQISKALVDVGVDFQAMWYTDEDHGIASSTAHQHIYTHMSHFIKQCFSLP
As to B1, the stoichiometry N was 2.
